Source: US7262274

Target: human RANK, full length (expressed in or on cells) (human) (UniProt Q9Y6Q6)
Assay: cell-based or functional assay

Chain of UniProt Q9Y6Q6 (Q9Y6Q6 30-616 limits assumed): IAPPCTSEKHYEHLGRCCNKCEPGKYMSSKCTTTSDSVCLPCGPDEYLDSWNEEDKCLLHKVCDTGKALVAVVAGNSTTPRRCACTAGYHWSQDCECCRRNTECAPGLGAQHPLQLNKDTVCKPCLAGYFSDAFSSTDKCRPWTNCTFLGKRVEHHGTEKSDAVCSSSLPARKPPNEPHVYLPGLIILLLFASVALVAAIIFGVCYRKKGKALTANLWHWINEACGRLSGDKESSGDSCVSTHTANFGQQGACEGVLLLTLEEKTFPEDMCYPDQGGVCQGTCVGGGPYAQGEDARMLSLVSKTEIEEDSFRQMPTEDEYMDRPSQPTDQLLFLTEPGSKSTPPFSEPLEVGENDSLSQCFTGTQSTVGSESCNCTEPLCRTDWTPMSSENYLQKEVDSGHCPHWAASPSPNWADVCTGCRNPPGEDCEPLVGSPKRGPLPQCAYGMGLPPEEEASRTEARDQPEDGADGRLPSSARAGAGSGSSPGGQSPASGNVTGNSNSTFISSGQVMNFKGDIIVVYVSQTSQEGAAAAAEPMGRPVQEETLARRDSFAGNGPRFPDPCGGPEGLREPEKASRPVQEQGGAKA

allo-stimulatory capacity of CD1a+ DC in a mixed lymphocyte reaction (MLR): > 10 fold
Substance: RANKL (species and construct not stated at the place of use) (ligand)
